Publication PMC9822992, “Conformational plasticity of NaK2K and TREK2 potassium channel selectivity filters” (Nature Communications, 2023)

Legend:
[1] = biological target: cysteine-less TREK2 S105C (Gly67 to Glu340); assay: SEC; Superdex-200 10/300, 20 mM Tris, 150 mM KCl, 2 mM DDM, pH 8, 4 °C; oligomer fractions of labelled TREK2 collected
[2] = biological target: the molecule itself; assay: SEC; Superdex-200 10/300, 20 mM Hepes, 150 mM KCl, 5 mM DM, pH 7.5, 4 °C; tetrameric fractions pooled (again after fluorophore labelling)

Row | Molecule | stoichiometry N [2] | binding result [2] | other results
1 | cysteine-less TREK2 S105C (Gly67 to Glu340) |  |  | stoichiometry N [1]: 2
2 | monomeric NaK Δ19 T73C (with F92A) (other, NaK channel from Bacillus cereus, Δ19 construct, monomeric; In the cross-linking experiment T73C was reacted with bis-maleimide PEG (Bis-Mal-dPEG3, 3 nm, or Bis-Mal-dPEG11, 6 nm); also called NaK T73C; not shown: His8, C-terminal, kept) KDKEFQVLFVLTILTLISGTIFYSTVEGLRPIDALYFSVVTLTTVGDGNFSPQCDFGKIFTILYIFIGIGLVAGFIHKLAVNVQLPSILSNRKKE | 4 |  | 
3 | monomeric NaK2K Δ19 T73C (with F92A) (other, NaK channel from Bacillus cereus, Δ19 construct, NaK2K mutant (TVGDGN changed to TVGYGD), monomeric; positions 63-68 are worked out from the printed Asn68; Channels 'formed as tetramers of monomeric, not tandem dimeric, constructs'; In the cross-linking experiment T73C was reacted with bis-maleimide PEG (3 nm or 6 nm); also called NaK2K T73C; not shown: His8, C-terminal, kept) KDKEFQVLFVLTILTLISGTIFYSTVEGLRPIDALYFSVVTLTTVGYGDFSPQCDFGKIFTILYIFIGIGLVAGFIHKLAVNVQLPSILSNRKKE | 4 |  | 
4 | tandem dimeric NaK Δ19 T73C (other, Alexa Fluor 555 or Alexa Fluor 647 c2 maleimide on T73C, NaK (Na+- and K+-conducting) channel from Bacillus cereus, Δ19 construct, first subunit (S1) of the tandem, carries T73C; linker between the two copies; NaK channel from Bacillus cereus, Δ19 construct, second subunit of the tandem, without cysteine; pET28a; Two tandem dimers form the tetrameric channel; whether a His8 also follows the first copy inside the tandem is not clear; also called NaK …) KDKEFQVLFVLTILTLISGTIFYSTVEGLRPIDALYFSVVTLTTVGDGNFSPQCDFGKIFTILYIFIGIGLVFGFIHKLAVNVQLPSILSNRKKEGGGSGGGSKDKEFQVLFVLTILTLISGTIFYSTVEGLRPIDALYFSVVTLTTVGDGNFSPQTDFGKIFTILYIFIGIGLVFGFIHKLAVNVQLPSILSNRKKE |  | binds | 
5 | tandem dimeric NaK2K Δ19 T73C (other, Alexa Fluor 555 or Alexa Fluor 647 c2 maleimide on T73C, NaK channel from Bacillus cereus, Δ19 construct, NaK2K mutant (selectivity filter TVGDGN changed to TVGYGD), first subunit (S1) of the tandem, carries T73C; positions 63-68 are worked out from the printed Asn68; linker between the two copies; NaK channel from Bacillus cereus, Δ19 construct, NaK2K mutant (TVGDGN changed to TVGYGD), second subunit of the tandem, without cysteine; pET28a; Two tandem …) KDKEFQVLFVLTILTLISGTIFYSTVEGLRPIDALYFSVVTLTTVGYGDFSPQCDFGKIFTILYIFIGIGLVFGFIHKLAVNVQLPSILSNRKKEGGGSGGGSKDKEFQVLFVLTILTLISGTIFYSTVEGLRPIDALYFSVVTLTTVGYGDFSPQTDFGKIFTILYIFIGIGLVFGFIHKLAVNVQLPSILSNRKKE |  | binds | 
